The values below are quoted from earlier work in article PMC8695629.

Data set [1] addresses DOT1L 7-mer peptide (Homo sapiens) (UniProt Q8TEK3). Briefly: fluorescence polarization. In general terms: Fluorescence polarisation rises when a labelled molecule tumbles more slowly, as on binding a larger partner.
The next data set has as its target CBX8 (Homo sapiens) (UniProt Q9HC52).
The target of the next data set is BCOR (Homo sapiens) (UniProt Q6W2J9).
Data set [2] concerns the target DOT1L 10-mer peptide (Homo sapiens) (UniProt Q8TEK3).

Sequence of UniProt Q6W2J9 (Q6W2J9 whole entry): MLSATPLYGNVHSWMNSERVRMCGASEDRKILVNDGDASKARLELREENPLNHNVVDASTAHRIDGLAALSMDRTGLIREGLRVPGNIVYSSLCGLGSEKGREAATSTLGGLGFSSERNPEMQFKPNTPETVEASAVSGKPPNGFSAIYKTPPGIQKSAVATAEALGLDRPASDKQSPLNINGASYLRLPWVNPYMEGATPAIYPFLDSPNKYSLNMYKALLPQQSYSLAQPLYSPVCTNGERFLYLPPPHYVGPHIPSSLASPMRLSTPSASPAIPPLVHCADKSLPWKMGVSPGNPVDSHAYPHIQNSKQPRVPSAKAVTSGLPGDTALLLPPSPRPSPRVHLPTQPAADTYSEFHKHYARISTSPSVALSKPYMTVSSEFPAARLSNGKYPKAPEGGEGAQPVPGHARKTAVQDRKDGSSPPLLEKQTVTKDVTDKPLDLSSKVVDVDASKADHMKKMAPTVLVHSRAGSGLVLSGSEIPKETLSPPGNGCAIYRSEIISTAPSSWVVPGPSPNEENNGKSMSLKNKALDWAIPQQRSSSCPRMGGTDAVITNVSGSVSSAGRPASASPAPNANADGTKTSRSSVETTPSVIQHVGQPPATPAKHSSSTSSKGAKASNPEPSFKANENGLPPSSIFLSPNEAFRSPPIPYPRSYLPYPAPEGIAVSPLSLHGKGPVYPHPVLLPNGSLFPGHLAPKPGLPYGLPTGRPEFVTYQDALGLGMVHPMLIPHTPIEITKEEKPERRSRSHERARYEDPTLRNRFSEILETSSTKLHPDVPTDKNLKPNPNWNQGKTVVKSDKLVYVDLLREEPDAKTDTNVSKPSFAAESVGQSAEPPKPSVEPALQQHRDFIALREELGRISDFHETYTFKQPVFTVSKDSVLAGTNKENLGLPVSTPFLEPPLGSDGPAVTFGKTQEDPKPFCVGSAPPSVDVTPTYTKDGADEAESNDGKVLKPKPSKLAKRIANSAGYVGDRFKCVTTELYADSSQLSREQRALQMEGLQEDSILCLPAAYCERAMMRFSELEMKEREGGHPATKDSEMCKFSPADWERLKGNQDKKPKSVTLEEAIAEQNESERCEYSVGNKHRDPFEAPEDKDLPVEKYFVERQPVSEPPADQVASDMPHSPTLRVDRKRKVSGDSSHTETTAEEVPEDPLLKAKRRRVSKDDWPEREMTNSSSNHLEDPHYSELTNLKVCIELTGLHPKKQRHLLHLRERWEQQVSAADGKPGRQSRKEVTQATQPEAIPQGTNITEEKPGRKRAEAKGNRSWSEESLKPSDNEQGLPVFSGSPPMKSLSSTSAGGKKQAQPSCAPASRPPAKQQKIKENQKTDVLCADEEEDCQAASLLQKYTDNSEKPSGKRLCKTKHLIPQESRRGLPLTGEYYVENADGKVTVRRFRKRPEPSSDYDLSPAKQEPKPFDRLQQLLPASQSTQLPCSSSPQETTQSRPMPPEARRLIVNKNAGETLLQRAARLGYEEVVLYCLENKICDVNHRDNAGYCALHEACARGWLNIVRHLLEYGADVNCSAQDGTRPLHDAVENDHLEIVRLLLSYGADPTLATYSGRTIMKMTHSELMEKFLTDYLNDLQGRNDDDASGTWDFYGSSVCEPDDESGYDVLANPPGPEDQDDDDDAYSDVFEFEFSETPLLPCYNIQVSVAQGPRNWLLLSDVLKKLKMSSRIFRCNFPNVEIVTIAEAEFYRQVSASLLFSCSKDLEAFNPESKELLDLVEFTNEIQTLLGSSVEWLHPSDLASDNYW
Sequence of UniProt Q9HC52 (Q9HC52 whole entry A335V): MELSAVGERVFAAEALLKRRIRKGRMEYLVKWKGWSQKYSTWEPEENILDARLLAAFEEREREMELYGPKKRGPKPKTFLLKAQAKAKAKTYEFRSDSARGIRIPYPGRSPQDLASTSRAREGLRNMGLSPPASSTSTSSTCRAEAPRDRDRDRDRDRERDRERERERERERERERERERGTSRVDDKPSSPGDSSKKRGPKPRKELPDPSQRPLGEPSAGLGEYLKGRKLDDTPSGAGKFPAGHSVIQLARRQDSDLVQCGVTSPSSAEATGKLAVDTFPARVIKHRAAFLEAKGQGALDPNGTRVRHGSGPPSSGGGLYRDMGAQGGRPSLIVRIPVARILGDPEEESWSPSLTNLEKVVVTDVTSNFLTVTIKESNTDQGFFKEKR

As usually defined, the Ki is the dissociation constant of the complex between target and ligand, obtained from inhibition or displacement. Usually Kd stands for the equilibrium constant for the complex coming apart. Turning to MLLT3 (AF9) AHD (from UniProt P42568), the Ki in data set [1] is 160 nM. In addition, the Kd in the data set with CBX8 (Homo sapiens) was 12 nM; in the data set with BCOR (Homo sapiens), more than 3000 nM; in data set [2], 19 nM.
